Data published in publication PMC7570090, “Label-Free Monitoring of Histone Acetylation Using Aptamer-Functionalized Field-Effect Transistor and Quartz Crystal Microbalance Sensors”.

Experiments:
histone H3.1 = histone H3.1 (human, UniProt P68431 1-136); assay: FET and QCM; 140 mM KCl; 33-1950 nM H3; FET: 1 mM phosphate, 140 mM KCl, pH 7.4, 25 C; aptamer/sulfobetaine SAM on gold annealed at 100 C and slowly cooled; QCM 30 MHz, 25 C (buffer not separately sta)
histone H4 = histone H4 (human, UniProt P62805 1-103); assay: FET and QCM; 140 mM KCl; 44-2650 nM H4; FET: 1 mM phosphate, 140 mM KCl, pH 7.4, 25 C; aptamer/sulfobetaine SAM on gold annealed at 100 C and slowly cooled; QCM 30 MHz, 25 C (buffer not separately stated); conditions: protein: commercial; G-quadruplex with K+

Row | Binder | binding result (histone H3.1) | binding result (histone H4)
1 | anti-histone H3 aptamer (structured_DNA, 5' 6-mercaptohexyl linker) DNA: TTTGAGTGTGGTTCCCGGGAGGGCGCCTACGGGTCCCGTATTCGGATTTGTGC | binds | 
2 | anti-histone H4 aptamer (structured_DNA, 5' 6-mercaptohexyl linker) DNA: TTTTGGTGGGGTTCCCGGGAGGGCGGCTACGGGTTCCGTAATCAGATTTGTGT |  | binds
